Test results taken from the supplement of paper PMC11246515.
± gives the standard deviation of the averaged measurements.

Experiment: total protein half-life in vivo (active degradation + dilution); higher = more stable protein
[1] = E. coli NCM3722 delta-clpP delta-lon delta-hslV, growth: N-lim chemostat, doubling time 6 h
[2] = E. coli NCM3722 delta-clpP, growth: N-lim chemostat, doubling time 6 h
[3] = E. coli NCM3722 delta-hslV, growth: N-lim chemostat, doubling time 6 h
[4] = E. coli NCM3722 delta-lon, growth: N-lim chemostat, doubling time 6 h
[5] = E. coli NCM3722 delta-smpB, growth: N-lim chemostat, doubling time 6 h
[6] = wild type E. coli NCM3722, growth: C-lim chemostat, doubling time 3 h
[7] = wild type E. coli NCM3722, growth: C-lim chemostat, doubling time 6 h
[8] = wild type E. coli NCM3722, growth: C-lim chemostat, doubling time 12 h
[9] = wild type E. coli NCM3722, growth: N-lim chemostat, doubling time 6 h
[10] = wild type E. coli NCM3722, growth: N-lim chemostat, doubling time 12 h
[11] = wild type E. coli NCM3722, growth: P-lim chemostat, doubling time 6 h
[12] = wild type E. coli NCM3722, growth: P-lim chemostat, doubling time 12 h

Sequence	total protein half-life in vivo [1]	total protein half-life in vivo [2]	total protein half-life in vivo [3]	total protein half-life in vivo [4]	total protein half-life in vivo [5]	total protein half-life in vivo [6]	total protein half-life in vivo [7]	total protein half-life in vivo [8]	total protein half-life in vivo [9]	total protein half-life in vivo [10]	total protein half-life in vivo [11]	total protein half-life in vivo [12]
MTDLIQRPRRLRKSPALRAMFEETTLSLNDLVLPIFVEEEIDDYKAVEAMPGVMRIPEKHLAREIERIANAGIRSVMTFGISHHTDETGSDAWREDGLVARMSRICKQTVPEMIVMSDTCFCEYTSHGHCGVLCEHGVDNDATLENLGKQAVVAAAAGADFIAPSAAMDGQVQAIRQALDAAGFKDTAIMSYSTKFASSFYGPFREAAGSALKGDRKSYQMNPMNRREAIRESLLDEAQGADCLMVKPAGAYLDIVRELRERTELPIGAYQVSGEYAMIKFAALAGAIDEEKVVLESLGSIKRAGADLIFSYFALDLAEKKILR [P0ACB2]	5.37 ± 0.27 h	5.78 ± 1.1 h	4.92 ± 0.25 h	5.46 ± 0.23 h	4.71 ± 0.18 h	2.99 ± 0.082 h	5.43 ± 0.14 h	9.8 ± 1.4 h	5.01 ± 0.34 h	8.03 ± 0.4 h	5.96 ± 0.23 h	11.9 ± 0.21 h
MANWQSIDELQDIASDLPRFIHALDELSRRLGLNITPLTADHISLRCHQNATAERWRRGFEQCGELLSENMINGRPICLFKLHEPVQVAHWQFSIVELPWPGEKRYPHEGWEHIEIVLPGDPETLNARALALLSDEGLSLPGISVKTSSPKGEHERLPNPTLAVTDGKTTIKFHPWSIEEIVASEQSA	5.34 ± 1.4 h	3.77 ± 0.15 h	2.73 ± 0.29 h	3.16 ± 0.24 h	3.04 ± 0.023 h	2.231 ± 0.0095 h	3.62 ± 1.4 h	5.25 ± 0.3 h	3.3 h	3.66 h	3.83 h	6.37 ± 1.2 h
MPSIRLADLAQQLDAELHGDGDIVITGVASMQSAQTGHITFMVNPKYREHLGLCQASAVVMTQDDLPFAKSAALVVKNPYLTYARMAQILDTTPQPAQNIAPSAVIDATAKLGNNVSIGANAVIESGVELGDNVIIGAGCFVGKNSKIGAGSRLWANVTIYHEIQIGQNCLIQSGTVVGADGFGYANDRGNWVKIPQIGRVIIGDRVEIGACTTIDRGALDDTIIGNGVIIDNQCQIAHNVVIGDNTAVAGGVIMAGSLKIGRYCMIGGASVINGHMEICDKVTVTGMGMVMRPITEPGVYSSGIPLQPNKVWRKTAALVMNIDDMSKRLKSLERKVNQQD	6.07 ± 0.77 h	6.31 ± 1.8 h	5.56 ± 0.47 h	5.67 ± 0.27 h	5.17 ± 0.14 h	2.94 ± 0.27 h	5.58 ± 0.18 h	12.2 ± 1.4 h	5.06 ± 0.12 h	9.29 ± 0.54 h	5.9 ± 0.48 h	12.7 ± 0.47 h
MKPLHYTASALALGLALMGNAQAVTTIPFWHSMEGELGKEVDSLAQRFNAENPDYKIVPTYKGNYEQNLSAGIAAFRTGNAPAILQVYEVGTATMMASKAIKPVYDVFKEAGIQFDESQFVPTVSGYYSDSKTGHLLSQPFNSSTPVLYYNKDAFKKAGLDPEQPPKTWQDLADYAAKLKASGMKCGYASGWQGWIQLENFSAWNGLPFASKNNGFDGTDAVLEFNKPEQVKHIAMLEEMNKKGDFSYVGRKDESTEKFYNGDCAMTTASSGSLANIREYAKFNYGVGMMPYDADAKDAPQNAIIGGASLWVMQGKDKETYTGVAKFLDFLAKPENAAEWHQKTGYLPITKAAYDLTREQGFYEKNPGADTATRQMLNKPPLPFTKGLRLGNMPQIRVIVDEELESVWTGKKTPQQALDTAVERGNQLLRRFEKSTKS [P0AG80]	4.8 ± 0.06 h	5.43 ± 0.54 h	7.41 ± 0.31 h		6.14 ± 0.2 h	3.37 ± 0.17 h	6.26 ± 0.076 h	12.9 ± 0.73 h	6.47 ± 0.47 h	12.7 ± 0.98 h	6.14 ± 0.21 h	12.99 ± 0.1 h
MTKIIAVTACPSGVAHTYMAAEALESAAKAKGWEVKVETQGSIGLENELTAEDVASADMVILTKDIGIKFEERFAGKTIVRVNISDAVKRADAIMSKIEAHLAQTA	4.85 ± 0.3 h	5.65 h						8.01 ± 8.9 h				
MSKNERMVGISRRTLVKSTAIGSLALAAGGFSLPFTLRNAAAAVQQAREKVVWGACSVNCGSRCALRLHVKDNEVTWVETDNTGSDEYGNHQVRACLRGRSIRRRINHPDRLNYPMKRVGKRGEGKFERISWDEALDTIASSLKKTVEQYGNEAVYIQYSSGIVGGNMTRSSPSASAVKRLMNCYGGSLNQYGSYSTAQISCAMPYTYGSNDGNSTTDIENSKLVVMFGNNPAETRMSGGGITYLLEKAREKSNAKMIVIDPRYTDTAAGREDEWLPIRPGTDAALVAGIAWVLINENLVDQPFLDKYCVGYDEKTLPADAPKNGHYKAYILGEGDDKTAKTPQWASQITGIPEDRIIKLAREIGTAKPAYICQGWGPQRQANGELTARAIAMLPILTGNVGISGGNSGARESTYTITIERLPVLDNPVKTSISCFSWTDAIDHGPQMTAIRDGVRGKDKLDVPIKFIWNYAGNTLVNQHSDINKTHEILQDESKCEMIVVIENFMTSSAKYADILLPDLMTVEQEDIIPNDYAGNMGYLIFLQPVTSEKFERKPIYWILSEVAKRLGPDVYQKFTEGRTQEQWLQHLYAKMLAKDPALPSYDELKKMGIYKRKDPNGHFVAYKAFRDDPEANPLKTPSGKIEIYSSRLAEIARTWELEKDEVISPLPVYASTFEGWNSPERRTFPLQLFGFHYKSRTHSTYGNIDLLKAACRQEVWINPIDAQKRGIANGDMVRVFNHRGEVRLPAKVTPRILPGVSAMGQGAWHEANMSGDKIDHGGCVNTLTTLRPSPLAKGNPQHTNLVEIEKI	5.78 h											
MKNWKTLLLGIAMIANTSFAAPQVVDKVAAVVNNGVVLESDVDGLMQSVKLNAAQARQQLPDDATLRHQIMERLIMDQIILQMGQKMGVKISDEQLDQAIANIAKQNNMTLDQMRSRLAYDGLNYNTYRNQIRKEMIISEVRNNEVRRRITILPQEVESLAQQVGNQNDASTELNLSHILIPLPENPTSDQVNEAESQARAIVDQARNGADFGKLAIAHSADQQALNGGQMGWGRIQELPGIFAQALSTAKKGDIVGPIRSGVGFHILKVNDLRGESKNISVTEVHARHILLKPSPIMTDEQARVKLEQIAADIKSGKTTFAAAAKEFSQDPGSANQGGDLGWATPDIFDPAFRDALTRLNKGQMSAPVHSSFGWHLIELLDTRNVDKTDAAQKDRAYRMLMNRKFSEEAASWMQEQRASAYVKILSN [P0ABZ6]	5.66 ± 0.16 h	6.39 ± 1.2 h	6.52 ± 0.36 h	6.49 ± 0.28 h	5.7 ± 0.35 h	2.97 ± 0.098 h	6.4 ± 0.42 h	11.7 ± 0.87 h	6.23 ± 0.57 h	13.1 ± 0.99 h	5.78 ± 0.24 h	11.7 ± 0.52 h
